Results from publication PMC4263767, “IL-28B is a Key Regulator of B- and T-Cell Vaccine Responses against Influenza” (PLoS Pathogens, 2014).

Columns and labels:
Type in all cases: cell-based, human
[1] = test system: PBMCs from healthy volunteers; assay: Cytokine release by H1N1-stimulated healthy volunteer PBMCs, 5 days (luminex); details: with IL-28B; 5-day H1N1; HV PBMCs n=9; median (IQR)
[2] = test system: PBMCs from transplant recipients; assay: Cytokine release by H1N1-stimulated transplant recipient PBMCs, overnight (luminex)
[3] = test system: PBMCs from healthy volunteers
[4] = IL-28B 100 ng/mL, overnight H1N1, p=0.04
[5] = IL-28B 100 ng/mL, overnight H1N1, p=0.39
[6] = IL-28B 100 ng/mL, overnight H1N1, p=1.00
[7] = IL-28B 100 ng/mL, overnight H1N1, transplant PBMCs, median (IQR)

B1: IL-28B: recombinant IL-28B, a member of the interferon (IFN)-λ family (protein)
chain: VPVARLRGALPDARGCHIAQFKSLSPQELQAFKRAKDALEESLLLKDCKCRSRLFPRTWDLRQLQVRERPVALEAELALTLKVLEATADTDPALGDVLDQPLHTLHHILSQLRACIQPQPTAGPRTRGRLHHWLHRLQEAPKKESPGCLEASVTFNLFRLLTRDLNCVASGDLCV
modifications: left off: His tag, end not stated, kept
notes: recombinant IL-28B, a member of the interferon (IFN)-λ family
**Q.** How did the IL-5 [1] turn out when B1 was run?
**A.** 0.6 (0.6-8.3) pg/mL

**Q.** What about the IL-6 [1] of the same molecule?
**A.** 215.5 (69.4-864.5) pg/mL

**Q.** What about the IL-7 [1] of the same molecule?
**A.** 3.2 (3.2-3.2) pg/mL

**Q.** What about the IL-8 [1] of the same molecule?
**A.** 1308.0 (789.8-1567.0) pg/mL

**Q.** What about the IL-9 [1] of the same molecule?
**A.** 1.3 (0.6-6.7) pg/mL

**Q.** And the IL-10 [1]?
**A.** 2597.0 (2063.0-4353.0) pg/mL

**Q.** What about the IL-12p40 [1] of the same molecule?
**A.** 3.2 (3.2-6.1) pg/mL

**Q.** What about the IL-12p70 [1] of the same molecule?
**A.** 1.6 (1.0-2.3) pg/mL

**Q.** And the IL-13 [1]?
**A.** 96.8 (0.6-126.7) pg/mL

**Q.** And the IL-15 [1]?
**A.** 2.7 (1.2-3.0) pg/mL

**Q.** And the IL-17 [1]?
**A.** 0.6 (0.6-30.7) pg/mL

**Q.** What about the IP-10 [1] of the same molecule?
**A.** 219.8 (3.2-2804.0) pg/mL

**Q.** And the MCP-1 [1]?
**A.** 53.8 (7.9-145.3) pg/mL

**Q.** What about the MCP-3 [1] of the same molecule?
**A.** 9988.0 (8889.0-12741.0) pg/mL

**Q.** What about the MDC [1] of the same molecule?
**A.** 16.0 (16.0-27.2) pg/mL

**Q.** And the MIP-1α [1]?
**A.** 5759.0 (2283.0-6915.0) pg/mL

**Q.** And the MIP-1β [1]?
**A.** 3575.0 (1795.0-5820.0) pg/mL

**Q.** And the “PDGF AA” value [1]?
**A.** 0.6 (0.6 – 0.6) pg/mL

**Q.** What about the “PDGF AB/BB” value [1] of the same molecule?
**A.** 8.9 (1.3-18.2) pg/mL

**Q.** And the RANTES [1]?
**A.** 3640.0 (1941.0-6677.0) pg/mL

**Q.** And the TGF-α [1]?
**A.** 11.8 (9.7-17.0) pg/mL

**Q.** What about the TNF-α [1] of the same molecule?
**A.** 297.0 (3.1-449.6) pg/mL

**Q.** What about the TNF-β [1] of the same molecule?
**A.** 12.0 (1.0-27.4) pg/mL

**Q.** And the VEGF [1]?
**A.** 34.6 (15.6-46.3) pg/mL

**Q.** What about the sCD40L [1] of the same molecule?
**A.** 253.0 (140.1-456.3) pg/mL

**Q.** What about the sIL2Ra [1] of the same molecule?
**A.** 192.2 (140.8-236.1) pg/mL

**Q.** And the “H1N1-stimulated Th1-cytokine expression (IFN-γ, IL6)” value ([2]; IL-28B 100 ng/mL, 2 h before overnight H1N1, n = 36)?
**A.** significant increase

**Q.** What about the “IFN-α, ratio IL-28B/no IL-28B” value ([2]; IL-28B 100 ng/mL, overnight H1N1, p=0.001) of the same molecule?
**A.** 2.9

**Q.** What about the “IFN-γ, ratio IL-28B/no IL-28B” value [2, 4] of the same molecule?
**A.** 2.1

**Q.** And the “MIP-1α, ratio IL-28B/no IL-28B” value [2, 4]?
**A.** 1.8

**Q.** What about the “sCD40-L, ratio IL-28B/no IL-28B” value [2, 4] of the same molecule?
**A.** 1.0

**Q.** And the “IL-6, ratio IL-28B/no IL-28B” value ([2]; IL-28B 100 ng/mL, overnight H1N1, p=0.05)?
**A.** 2.4

**Q.** And the “IP-10, ratio IL-28B/no IL-28B” value ([2]; IL-28B 100 ng/mL, overnight H1N1, p=0.14)?
**A.** 1.0

**Q.** What about the “MCP-3, ratio IL-28B/no IL-28B” value ([2]; IL-28B 100 ng/mL, overnight H1N1, p=0.33) of the same molecule?
**A.** 1.2

**Q.** And the “Fractalkine, ratio IL-28B/no IL-28B” value [2, 5]?
**A.** 5.0

**Q.** What about the “TNF-α, ratio IL-28B/no IL-28B” value [2, 5] of the same molecule?
**A.** 1.9

**Q.** And the “IL-1β, ratio IL-28B/no IL-28B” value ([2]; IL-28B 100 ng/mL, overnight H1N1, p=0.44)?
**A.** 1.0

**Q.** And the “MCP-1, ratio IL-28B/no IL-28B” value ([2]; IL-28B 100 ng/mL, overnight H1N1, p=0.61)?
**A.** 1.0

**Q.** And the “IL-2, ratio IL-28B/no IL-28B” value ([2]; IL-28B 100 ng/mL, overnight H1N1, p=0.86)?
**A.** 1.1

**Q.** And the “IL-4, ratio IL-28B/no IL-28B” value ([2]; IL-28B 100 ng/mL, overnight H1N1, p=0.92)?
**A.** 1.0

**Q.** What about the “GRO, ratio IL-28B/no IL-28B” value [2, 6] of the same molecule?
**A.** 1.0

**Q.** And the “IL-5, ratio IL-28B/no IL-28B” value [2, 6]?
**A.** 1.0

**Q.** And the “IL-9, ratio IL-28B/no IL-28B” value [2, 6]?
**A.** 1.0

**Q.** And the “IL-13, ratio IL-28B/no IL-28B” value [2, 6]?
**A.** 1.0

**Q.** What about the Fractalkine [2, 7] of the same molecule?
**A.** 16.1 (3.2-60.2) pg/mL

**Q.** What about the GRO [2, 7] of the same molecule?
**A.** 3.2 (3.2-3.2) pg/mL

**Q.** What about the IFN-α [2, 7] of the same molecule?
**A.** 1290.8 (502.4-1969.9) pg/mL

**Q.** What about the IFN-γ [2, 7] of the same molecule?
**A.** 48.0 (13.9-133.3) pg/mL

**Q.** And the IL-1β [2, 7]?
**A.** 0.6 (0.6-4.0) pg/mL

**Q.** And the IL-2 [2, 7]?
**A.** 61.5 (6.0-168.9) pg/mL

**Q.** And the IL-4 [2, 7]?
**A.** 0.6 (0.6-1.5) pg/mL

**Q.** What about the IL-5 [2, 7] of the same molecule?
**A.** 0.6 (0.6-0.6) pg/mL

**Q.** What about the IL-6 [2, 7] of the same molecule?
**A.** 104.0 (15.0-156.6) pg/mL

**Q.** And the IL-9 [2, 7]?
**A.** 0.6 (0.6-0.6) pg/mL

**Q.** What about the IL-13 [2, 7] of the same molecule?
**A.** 0.6 (0.6-0.9) pg/mL

**Q.** What about the IP-10 [2, 7] of the same molecule?
**A.** 8336.4 (7362.5-9289.1) pg/mL

**Q.** What about the MCP-1 [2, 7] of the same molecule?
**A.** 0.5 (0.5-827.4) pg/mL

**Q.** And the MCP-3 [2, 7]?
**A.** 760.9 (398.3-2500.5) pg/mL

**Q.** What about the MIP-1α [2, 7] of the same molecule?
**A.** 321.4 (173.7-485.3) pg/mL

**Q.** And the TNF-α [2, 7]?
**A.** 23.2 (0.7-44.8) pg/mL

**Q.** And the sCD40-L [2, 7]?
**A.** 0.6 (0.6-77.7) pg/mL

**Q.** What about the “Th1-cytokines (in words, abstract)” value ([2]; in vitro) of the same molecule?
**A.** increased Th1-cytokines (e.g. IFN-γ)

**Q.** What about the “reduction of IgG-production” value ([3]; abstract, in vitro) of the same molecule?
**A.** > 70%

**Q.** And the “lower H1N1-stimulated IgG antibody production” value ([3]; highest dose of IL-28B (100 ng/mL), 5-day H1N1, n = 8)?
**A.** 70%
